Measured values: US20260001928A1 (CORTERIA PHARMACEUTICALS, priority 2022, published 2026)
*1 amine or outer side, *2 acyl side, *3 side chain or, on linkers, in order; H or OH if unused. Where no end group is shown, it is not given here. Side-chain parts run from the residue outwards. [ ]: non-standard residue; d: D form. The star is where a group is joined. C20 diacid = O=C(O)CCCCCCCCCCCCCCCCCCC(=O)*; γGlu = O=C(O)[C@H](CCC(=O)[*:2])N[*:1]; NMeI = CC[C@H](C)[C@H](NC)C(=O)O; AEEA = NCCOCCOCC(=O)O; Aib = CC(C)(N)C(=O)O

B1: peptide of SEQ ID NO: 240 (peptide)
peptide: Ac-IVLSLD[dV]PIKLK([AEEA-AEEA-γGlu-C20 diacid])KILLEQEKQKAQREQAETN[Aib]QILAQV-NH2
SMILES: CC[C@H](C)[C@H](NC(C)=O)C(=O)N[C@H](C(=O)N[C@@H](CC(C)C)C(=O)N[C@@H](CO)C(=O)N[C@@H](CC(C)C)C(=O)N[C@@H](CC(=O)O)C(=O)N[C@@H](C(=O)N1CCC[C@H]1C(=O)N[C@H](C(=O)N[C@@H](CCCCN)C(=O)N[C@@H](CC(C)C)C(=O)N[C@@H](CCCCNC(=O)COCCOCCNC(=O)COCCOCCNC(=O)CC[C@H](NC(=O)CCCCCCCCCCCCCCCCCCC(=O)O)C(=O)O)C(=O)N[C@@H](CCCCN)C(=O)N[C@H](C(=O)N[C@@H](CC(C)C)C(=O)N[C@@H](CC(C)C)C(=O)N[C@@H](CCC(=O)O)C(=O)N[C@@H](CCC(N)=O)C(=O)N[C@@H](CCC(=O)O)C(=O)N[C@@H](CCCCN)C(=O)N[C@@H](CCC(N)=O)C(=O)N[C@@H](CCCCN)C(=O)N[C@@H](C)C(=O)N[C@@H](CCC(N)=O)C(=O)N[C@@H](CCCNC(=N)N)C(=O)N[C@@H](CCC(=O)O)C(=O)N[C@@H](CCC(N)=O)C(=O)N[C@@H](C)C(=O)N[C@@H](CCC(=O)O)C(=O)N[C@H](C(=O)N[C@@H](CC(N)=O)C(=O)NC(C)(C)C(=O)N[C@@H](CCC(N)=O)C(=O)N[C@H](C(=O)N[C@@H](CC(C)C)C(=O)N[C@@H](C)C(=O)N[C@@H](CCC(N)=O)C(=O)N[C@H](C(N)=O)C(C)C)[C@@H](C)CC)[C@@H](C)O)[C@@H](C)CC)[C@@H](C)CC)C(C)C)C(C)C
B2: peptide of SEQ ID NO: 241 (peptide)
peptide: Ac-IVLSLD[dV]PIKLK([γGlu-γGlu-C20 diacid])KILLEQEKQKEQREQAETN[Aib]QILAQV-NH2
SMILES: CC[C@H](C)[C@H](NC(C)=O)C(=O)N[C@H](C(=O)N[C@@H](CC(C)C)C(=O)N[C@@H](CO)C(=O)N[C@@H](CC(C)C)C(=O)N[C@@H](CC(=O)O)C(=O)N[C@@H](C(=O)N1CCC[C@H]1C(=O)N[C@H](C(=O)N[C@@H](CCCCN)C(=O)N[C@@H](CC(C)C)C(=O)N[C@@H](CCCCNC(=O)CC[C@H](NC(=O)CC[C@H](NC(=O)CCCCCCCCCCCCCCCCCCC(=O)O)C(=O)O)C(=O)O)C(=O)N[C@@H](CCCCN)C(=O)N[C@H](C(=O)N[C@@H](CC(C)C)C(=O)N[C@@H](CC(C)C)C(=O)N[C@@H](CCC(=O)O)C(=O)N[C@@H](CCC(N)=O)C(=O)N[C@@H](CCC(=O)O)C(=O)N[C@@H](CCCCN)C(=O)N[C@@H](CCC(N)=O)C(=O)N[C@@H](CCCCN)C(=O)N[C@@H](CCC(=O)O)C(=O)N[C@@H](CCC(N)=O)C(=O)N[C@@H](CCCNC(=N)N)C(=O)N[C@@H](CCC(=O)O)C(=O)N[C@@H](CCC(N)=O)C(=O)N[C@@H](C)C(=O)N[C@@H](CCC(=O)O)C(=O)N[C@H](C(=O)N[C@@H](CC(N)=O)C(=O)NC(C)(C)C(=O)N[C@@H](CCC(N)=O)C(=O)N[C@H](C(=O)N[C@@H](CC(C)C)C(=O)N[C@@H](C)C(=O)N[C@@H](CCC(N)=O)C(=O)N[C@H](C(N)=O)C(C)C)[C@@H](C)CC)[C@@H](C)O)[C@@H](C)CC)[C@@H](C)CC)C(C)C)C(C)C
B3: peptide of SEQ ID NO: 242 (peptide)
peptide: [NMeI]VLSLD[dV]PIKLK([γGlu-γGlu-C20 diacid])KILLEQEKQKEQREQAETN[Aib]QILAQV-NH2
modifications: N-terminus assumed
SMILES: CC[C@H](C)[C@H](NC)C(=O)N[C@H](C(=O)N[C@@H](CC(C)C)C(=O)N[C@@H](CO)C(=O)N[C@@H](CC(C)C)C(=O)N[C@@H](CC(=O)O)C(=O)N[C@@H](C(=O)N1CCC[C@H]1C(=O)N[C@H](C(=O)N[C@@H](CCCCN)C(=O)N[C@@H](CC(C)C)C(=O)N[C@@H](CCCCNC(=O)CC[C@H](NC(=O)CC[C@H](NC(=O)CCCCCCCCCCCCCCCCCCC(=O)O)C(=O)O)C(=O)O)C(=O)N[C@@H](CCCCN)C(=O)N[C@H](C(=O)N[C@@H](CC(C)C)C(=O)N[C@@H](CC(C)C)C(=O)N[C@@H](CCC(=O)O)C(=O)N[C@@H](CCC(N)=O)C(=O)N[C@@H](CCC(=O)O)C(=O)N[C@@H](CCCCN)C(=O)N[C@@H](CCC(N)=O)C(=O)N[C@@H](CCCCN)C(=O)N[C@@H](CCC(=O)O)C(=O)N[C@@H](CCC(N)=O)C(=O)N[C@@H](CCCNC(=N)N)C(=O)N[C@@H](CCC(=O)O)C(=O)N[C@@H](CCC(N)=O)C(=O)N[C@@H](C)C(=O)N[C@@H](CCC(=O)O)C(=O)N[C@H](C(=O)N[C@@H](CC(N)=O)C(=O)NC(C)(C)C(=O)N[C@@H](CCC(N)=O)C(=O)N[C@H](C(=O)N[C@@H](CC(C)C)C(=O)N[C@@H](C)C(=O)N[C@@H](CCC(N)=O)C(=O)N[C@H](C(N)=O)C(C)C)[C@@H](C)CC)[C@@H](C)O)[C@@H](C)CC)[C@@H](C)CC)C(C)C)C(C)C
B4: peptide of SEQ ID NO: 243 (peptide)
peptide: Ac-IVLSLD[dV]PIKLK([γGlu-γGlu-C20 diacid])KILLEQEKQKKQREQAETN[Aib]QILAQV-NH2
SMILES: CC[C@H](C)[C@H](NC(C)=O)C(=O)N[C@H](C(=O)N[C@@H](CC(C)C)C(=O)N[C@@H](CO)C(=O)N[C@@H](CC(C)C)C(=O)N[C@@H](CC(=O)O)C(=O)N[C@@H](C(=O)N1CCC[C@H]1C(=O)N[C@H](C(=O)N[C@@H](CCCCN)C(=O)N[C@@H](CC(C)C)C(=O)N[C@@H](CCCCNC(=O)CC[C@H](NC(=O)CC[C@H](NC(=O)CCCCCCCCCCCCCCCCCCC(=O)O)C(=O)O)C(=O)O)C(=O)N[C@@H](CCCCN)C(=O)N[C@H](C(=O)N[C@@H](CC(C)C)C(=O)N[C@@H](CC(C)C)C(=O)N[C@@H](CCC(=O)O)C(=O)N[C@@H](CCC(N)=O)C(=O)N[C@@H](CCC(=O)O)C(=O)N[C@@H](CCCCN)C(=O)N[C@@H](CCC(N)=O)C(=O)N[C@@H](CCCCN)C(=O)N[C@@H](CCCCN)C(=O)N[C@@H](CCC(N)=O)C(=O)N[C@@H](CCCNC(=N)N)C(=O)N[C@@H](CCC(=O)O)C(=O)N[C@@H](CCC(N)=O)C(=O)N[C@@H](C)C(=O)N[C@@H](CCC(=O)O)C(=O)N[C@H](C(=O)N[C@@H](CC(N)=O)C(=O)NC(C)(C)C(=O)N[C@@H](CCC(N)=O)C(=O)N[C@H](C(=O)N[C@@H](CC(C)C)C(=O)N[C@@H](C)C(=O)N[C@@H](CCC(N)=O)C(=O)N[C@H](C(N)=O)C(C)C)[C@@H](C)CC)[C@@H](C)O)[C@@H](C)CC)[C@@H](C)CC)C(C)C)C(C)C
B5: peptide of SEQ ID NO: 244 (peptide)
peptide: Ac-IVLSLD[dV]PIKLK([γGlu-γGlu-C20 diacid])KILLEQEKQKAQREQAETN[Aib]QILAQV-NH2
SMILES: CC[C@H](C)[C@H](NC(C)=O)C(=O)N[C@H](C(=O)N[C@@H](CC(C)C)C(=O)N[C@@H](CO)C(=O)N[C@@H](CC(C)C)C(=O)N[C@@H](CC(=O)O)C(=O)N[C@@H](C(=O)N1CCC[C@H]1C(=O)N[C@H](C(=O)N[C@@H](CCCCN)C(=O)N[C@@H](CC(C)C)C(=O)N[C@@H](CCCCNC(=O)CC[C@H](NC(=O)CC[C@H](NC(=O)CCCCCCCCCCCCCCCCCCC(=O)O)C(=O)O)C(=O)O)C(=O)N[C@@H](CCCCN)C(=O)N[C@H](C(=O)N[C@@H](CC(C)C)C(=O)N[C@@H](CC(C)C)C(=O)N[C@@H](CCC(=O)O)C(=O)N[C@@H](CCC(N)=O)C(=O)N[C@@H](CCC(=O)O)C(=O)N[C@@H](CCCCN)C(=O)N[C@@H](CCC(N)=O)C(=O)N[C@@H](CCCCN)C(=O)N[C@@H](C)C(=O)N[C@@H](CCC(N)=O)C(=O)N[C@@H](CCCNC(=N)N)C(=O)N[C@@H](CCC(=O)O)C(=O)N[C@@H](CCC(N)=O)C(=O)N[C@@H](C)C(=O)N[C@@H](CCC(=O)O)C(=O)N[C@H](C(=O)N[C@@H](CC(N)=O)C(=O)NC(C)(C)C(=O)N[C@@H](CCC(N)=O)C(=O)N[C@H](C(=O)N[C@@H](CC(C)C)C(=O)N[C@@H](C)C(=O)N[C@@H](CCC(N)=O)C(=O)N[C@H](C(N)=O)C(C)C)[C@@H](C)CC)[C@@H](C)O)[C@@H](C)CC)[C@@H](C)CC)C(C)C)C(C)C

The binders below were run against Rat CRF2 a (corticotropin-releasing factor receptor 2), on the A7R5 rat aortic smooth muscle cell line (rat, UniProt P47866 20-411) (assay: cell-based or functional assay).
Chain of Rat CRF2 a (corticotropin-releasing factor receptor 2), on the A7R5 rat aortic smooth muscle cell line (P47866 20-411): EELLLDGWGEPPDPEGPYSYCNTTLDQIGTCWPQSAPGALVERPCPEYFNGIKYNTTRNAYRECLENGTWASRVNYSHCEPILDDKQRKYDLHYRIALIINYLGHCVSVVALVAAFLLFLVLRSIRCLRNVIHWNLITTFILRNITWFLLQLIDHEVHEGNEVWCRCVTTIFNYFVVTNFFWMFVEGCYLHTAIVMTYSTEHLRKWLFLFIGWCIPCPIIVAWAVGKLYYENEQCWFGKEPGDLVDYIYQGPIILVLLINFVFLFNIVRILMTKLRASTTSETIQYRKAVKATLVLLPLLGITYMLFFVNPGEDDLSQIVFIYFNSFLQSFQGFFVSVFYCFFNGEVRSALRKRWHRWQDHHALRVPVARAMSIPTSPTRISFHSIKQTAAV

Binder | EC50 [nM] 0% HSA (cAMP, A7R5 rat aortic smooth muscle cells) [nM]
B1 | 2.3
B2 | 3.52
B3 | 0.4
B4 | 0.09
B5 | 1.77

What follows are binders tested against T1, CRF1R (corticotropin-releasing factor receptor 1), on the CRF1R-overexpression CHO-K1 cell line clone 2 (UniProt P34998 24-415, limits assumed) (assay: cell-based or functional assay).
T1 sequence (looked up): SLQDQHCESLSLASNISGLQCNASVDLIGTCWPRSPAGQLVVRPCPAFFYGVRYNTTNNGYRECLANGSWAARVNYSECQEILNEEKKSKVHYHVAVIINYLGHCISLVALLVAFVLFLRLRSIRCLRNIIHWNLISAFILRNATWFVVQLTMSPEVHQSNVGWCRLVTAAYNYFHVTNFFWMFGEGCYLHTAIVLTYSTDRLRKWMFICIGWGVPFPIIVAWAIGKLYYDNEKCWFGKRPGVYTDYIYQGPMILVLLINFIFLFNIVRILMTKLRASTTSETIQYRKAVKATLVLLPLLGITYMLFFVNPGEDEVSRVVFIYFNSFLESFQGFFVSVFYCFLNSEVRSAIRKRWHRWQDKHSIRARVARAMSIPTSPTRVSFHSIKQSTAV

Binder | EC50 [nM] (cAMP, CRF1R-overexpression CHO-K1 cells) | Emax (% I) (cAMP, 100% = Sauvagine at 100 nM)
B1 | > 250 | 4
B2 | > 250 | 7
B3 | > 250 | 6
B4 | > 250 | 8
B5 | > 250 | 8
